Results taken from article PMC12884772, “Macrophagic Sclerostin Loop2‐ApoER2 Interaction Required by Sclerostin for Cardiovascular Protective Action” (Advanced Science, 2025).

Columns and labels:
[1] = target: T1, ApoER2 (Mus musculus, UniProt Q924X6); assay: Confocal microscopy of cell surface binding of sclerostin to ApoER2; format: cell-based; conditions: GFP‐ApoER2 overexpressed RAW 264.7, sclerostin 1 µM for 12 h; Figure 6C
T1 construct: FLAG; expressed in transfected cells; host or cells: RAW264.7
T1 sequence (Q924X6 29-996): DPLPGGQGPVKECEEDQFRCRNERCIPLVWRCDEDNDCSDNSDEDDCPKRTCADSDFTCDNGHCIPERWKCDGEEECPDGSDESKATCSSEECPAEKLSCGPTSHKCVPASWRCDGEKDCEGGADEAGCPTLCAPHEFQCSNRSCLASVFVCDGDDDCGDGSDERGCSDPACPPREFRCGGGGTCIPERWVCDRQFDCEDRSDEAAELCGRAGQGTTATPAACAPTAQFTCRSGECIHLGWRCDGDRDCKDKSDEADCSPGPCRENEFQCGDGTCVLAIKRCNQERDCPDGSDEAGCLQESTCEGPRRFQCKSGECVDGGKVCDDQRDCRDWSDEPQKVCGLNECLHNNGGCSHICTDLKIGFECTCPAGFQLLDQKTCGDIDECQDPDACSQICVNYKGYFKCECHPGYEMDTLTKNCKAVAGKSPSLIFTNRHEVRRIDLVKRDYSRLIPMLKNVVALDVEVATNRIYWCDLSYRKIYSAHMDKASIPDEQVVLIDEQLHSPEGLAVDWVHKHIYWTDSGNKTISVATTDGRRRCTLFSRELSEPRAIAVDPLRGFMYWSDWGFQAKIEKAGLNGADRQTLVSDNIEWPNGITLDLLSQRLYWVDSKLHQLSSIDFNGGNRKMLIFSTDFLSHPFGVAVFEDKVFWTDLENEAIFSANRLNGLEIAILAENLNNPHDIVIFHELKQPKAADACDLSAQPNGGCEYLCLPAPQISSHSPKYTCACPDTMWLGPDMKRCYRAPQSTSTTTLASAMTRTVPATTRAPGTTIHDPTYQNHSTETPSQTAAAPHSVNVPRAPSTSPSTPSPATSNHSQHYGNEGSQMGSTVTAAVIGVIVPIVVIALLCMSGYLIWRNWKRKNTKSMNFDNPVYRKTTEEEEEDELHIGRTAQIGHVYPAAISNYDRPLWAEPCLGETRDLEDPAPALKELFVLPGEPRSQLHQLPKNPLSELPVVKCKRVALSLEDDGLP
Procedure: (§1) The interaction of full‐length (FL)/truncated ApoER2 with full‐length (FL) /truncated sclerostin in macrophages (RAW264.7) were determined by pull‐down assay and Co‐IP assay. The binding affinity of ApoER2 to FL sclerostin and sclerostin loop2 were determined by biolayer interferometry (BLI) analysis. Moreover, the binding of sclerostin to ApoER2 on macrophages (RAW264.7) was examined by confocal microscopy.
GFP‐ApoER2 overexpressed RAW 264.7 cells and GFP‐vector overexpressed RAW 264.7 cells were plated in laser confocal dishes (80 000 cells per well) 12 h before the experiment. The recombinant sclerostin was added to make its final concentration 1 µM for 12 h. Cells were washed three times with PBS and then fixed with 4% paraformaldehyde (PFA) in PBS for 15 min, washed three times, blocked in 10% goat serum for 1 h at room temperature and incubated with anti‐sclerostin primary antibody (Thermo, PA5‐113315, 1:100) overnight at 4 °C. Thereafter, cells were washed with PBS three times, then incubated with goat anti‐rabbit IgG H&L (Alexa Fluor 594, 1:200) for 2 h at 37 °C. Hoechst was used to stain the cell nuclei. The fluorescent images were obtained by a confocal microscope (Leica, STELLARIS STED) equipped with a 405 nm laser, a 488 nm laser, and a 594 nm laser.^[ [67] ^]

[2] = target: T1, ApoER2; assay: Pull‐down assay of ApoER2 by His‐tagged full‐length/truncated/mutated sclerostin in macrophages (RAW264.7); format: binding; conditions: RAW264.7 lysate, Ni‐NTA beads, western blot; Figure 6A, S6A
Procedure: as §1
The interaction residues within ApoER2 to sclerostin loop2 were determined in combination with pull‐down assay and BLI analysis. Based on the interaction residues within ApoER2 to sclerostin loop2, a series of Lrp8 mutations were developed. Based on the interaction residues within sclerostin loop2 to ApoER2, a series of sost mutations were developed.
Cell lysates were collected using RIPA Lysis and Extraction Buffer (Thermo Scientific, 89 901) supplemented with Protease Inhibitor Cocktail (CST, 5871) and centrifuged at 4000 rpm for 30 min at 4 °C, and replaced with binding buffer (PBS buffer, 20 mM imidazole, pH 8.0). […]
The eluted liquid from pull‐down assay was then mixed with SDS‐PAGE loading buffer and boiled for 10 min at 95 °C to make samples. […] The ECL solution (BIO‐RAD, 1 705 061) was used to visualize detected proteins. […]

Substance: sclerostin: recombinant human/mouse full‐length sclerostin protein
- Cell surface binding of sclerostin to ApoER2 [1]: observed
- Pull‐down of FLAG‐ApoER2 by the His‐tagged protein/peptide [2]: pulled
